Patent publication US20070207967A1, “Peptide Inhibitors of Matrix Metalloproteinase Activity” (CTT CANCER TARGETING TECHNOLOGIES OY, priority 2004, published 2007)

T1: MMP-9 C domain (Homo sapiens, UniProt P14780)
T1 construct: MMP-9 (Asp^494-Asp^688) were expressed as described (16); made in house; host or cells: E. coli (β5 fragment)
T1 sequence (P14780 513-707 limits assumed): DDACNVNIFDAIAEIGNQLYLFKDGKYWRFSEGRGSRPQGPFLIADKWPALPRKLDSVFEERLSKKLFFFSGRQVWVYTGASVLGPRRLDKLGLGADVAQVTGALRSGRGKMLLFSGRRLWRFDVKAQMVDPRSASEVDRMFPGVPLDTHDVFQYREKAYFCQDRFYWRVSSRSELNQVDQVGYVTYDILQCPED

B1: β5 I-EGF2+3: integrin β5 I-EGF2+3 fragment (Glu476-Asn563) with N-terminal His6-tag (protein)
chain: ECQDGENQSVYQNLCREAEGKPLCSGRGDCSCNQCSCFESEFGKIYGPFCECDNFSCARNKGVLCSGHGECHCGECKCHAGYIGDNCN
modifications: left off: small tags and cut ends
notes: integrin β5 I-EGF2+3 fragment (Glu476-Asn563) with N-terminal His6-tag
B2: MMP-9 C domain: recombinant C-terminal hemopexin-like domain of MMP-9 (Asp494-Asp688) (protein)
chain: DDACNVNIFDAIAEIGNQLYLFKDGKYWRFSEGRGSRPQGPFLIADKWPALPRKLDSVFEERLSKKLFFFSGRQVWVYTGASVLGPRRLDKLGLGADVAQVTGALRSGRGKMLLFSGRRLWRFDVKAQMVDPRSASEVDRMFPGVPLDTHDVFQYREKAYFCQDRFYWRVSSRSELNQVDQVGYVTYDILQCPED
B3: MMP-2 C domain: recombinant C-terminal domain of MMP-2 (Glu438-Cys631) (protein)
chain: EICKQDIVFDGIAQIRGEIFFFKDRFIWRTVTPRDKPMGPLLVATFWPELPEKIDAVYEAPQEEKAVFFAGNEYWIYSASTLERGYPKPLTSLGLPPDVQRVDAAFNWSKNKKTYIFAGDKFWRYNEVKKKMDPGFPKLIADAWNAIPDNLDAVVDLQGGGHSYFFKGAYYLKLENQSLKSVKFGSIKSDWLGC
B4: pro-MMP-9-ΔHC: pro-MMP-9 lacking the hinge region and the C domain (protein)
chain: APRQRQSTLVLFPGDLRTNLTDRQLAEEYLYRYGYTRVAEMRGESKSLGPALLLLQKQLSLPETGELDSATLKAMRTPRCGVPDLGRFQTFEGDLKWHHHNITYWIQNYSEDLPRAVIDDAFARAFALWSAVTPLTFTRVYSRDADIVIQFGVAEHGDGYPFDGKDGLLAHAFPPGPGIQGDAHFDDDELWSLGKGVVVPTRFGNADGAACHFPFIFEGRSYSACTTDGRSDGLPWCSTTANYDTDDRFGFCPSERLYTQDGNADGKPCQFPFIFQGQSYSACTTDGRSDGYRWCATTANYDRDKLFGFCPTRADSTVMGGNSAGELCVFPFTFLGKEYSTCTSEGRGDGRLWCATTSNFDSDKKWGFCPDQGYSLFLVAAHEFGHALGLDHSSVPEALMYPMYRFTEGPPLHKDDVNGIRHLYG
B5: CBD: recombinant collagen binding domain of MMP-9 (Gly204-Gly373) (protein)
chain: GNADGAACHFPFIFEGRSYSACTTDGRSDGLPWCSTTANYDTDDRFGFCPSERLYTQDGNADGKPCQFPFIFQGQSYSACTTDGRSDGYRWCATTANYDRDKLFGFCPTRADSTVMGGNSAGELCVFPFTFLGKEYSTCTSEGRGDGRLWCATTSNFDSDKKWGFCPDQG

Legend:
MMP-9 C domain = biological target: T1, MMP-9 C domain; assay: β5 I-EGF2+3 binding assay, MMP-9 C domain
Description: (§1) B5 I-EGF2+3 binding assay. MMP-9 C domain, MMP-2 C domain, CBD, β5 I-EGF2+3 or vitronectin (2 μg/ml) were immobilized in microtiter wells. Biotinylated β5 I-EGF2+3 fragment (2.5 μg/ml) was added to the wells which were preincubated with the competitors for 30 min in 1% BSA-PBST and then incubated further for one hour. Bound biotinylated protein was detected with streptavidin-peroxidase.

[1] = system: MMP-9 CBD, vitronectin, β5 I-EGF2+3, C domain of MMP-2; assay: β5 I-EGF2+3 binding assay, other immobilized proteins
Description: as §1

HT1080 fibrosarcoma = assay: HT1080 invasion through matrigel; type: cell-based, human; conditions: 50 μg/ml
Description: Cell migration and invasion. The cell migration assay was conducted using transwell migration chambers (8 μm pore size, Costar) in 10% serum-containing medium (2,14). Briefly, the membranes were coated on both sides with 40 μg/ml GST or with the β2 integrin ligand peptide […]-GST fusion (GST-LLG-C4) and blocked with complete medium. THP-1 cells (50 000/100 μl) were preincubated with the peptides for 1 h in serum-containing medium. The cells were allowed to migrate for 16 h and were then stained with crystal violet and counted (14). The HT1080 (20 000 cells/I100 μl) invasion assay was performed as the THP-1 migration, except that matrigel coated transwells (BD Biosciences) were used.

[2] = system: β5 integrin-transfected CS-1 melanoma cells; assay: 125I-C domain binding to cells; type: cell-based, hamster; conditions: for Competition of 125I-labelled MMP-9 C domain binding to β5 integrin-transfected CS-1 cells: unlabelled proteins 50 μg/ml, peptides 50 μM
Description: ^125I-C domain binding to cells. The MMP-9 C domain was labelled with ^125I to a specific activity 0.06 μCi/pmol. The labelled domain retained 40% of the CRV peptide-binding activity as shown by the phage-binding assay. […] After a preincubation of 1.5×10^6 cells in a 200 μl volume on ice for 30 min with the competitors, ^125I-labelled C domain (1×10^6 cpm) was added and incubated for three hours on ice. The cells were transferred to tubes containing 200 μl of dibutyl phthalate/cyclohexane mixture (23:2 vol/vol), centrifuged 7500×g for 10 minutes and snap-frozen (24). The bottom of the tube containing the cells were cut and analyzed with a gamma-counter.

THP-1 cells [3] = assay: THP-1 cell binding to immobilized KIM127 antibody; type: cell-based, human
Description: (§2) Cell adhesion. HT1080 cells were allowed to adhere on vitronectin or fibronectin (2 μg/ml) in the presence or absence of peptides (200 μM), proteins (40 μg/ml) or a monoclonal anti-αvβ5 integrin antibody P1F6 (Chemicon) or a control antibody (25 μg/ml). The adhesion was quantified as described (14). Adhesion of THP-1 cells to immobilized KIM127 or control monoclonal antibodies (2 μg/ml) was done in the presence or absence of soluble proteins (50 μg/ml) or antibodies (25 μg/ml).

THP-1 cells [4] = assay: THP-1 cell binding to antibody R3F9C; type: cell-based, human; conditions: not shown
Description: as §2

HT1080 cells = assay: HT1080 cell adhesion to vitronectin or fibronectin; type: cell-based, human; conditions: proteins 40 μg/ml, CRV peptide 200 μM
Description: as §2

Molecule	Inhibition of HT1080 invasion through matrigel by integrin and MMP domains (HT1080 fibrosarcoma)	Competition of 125I-labelled MMP-9 C domain binding to β5 integrin-transfected CS-1 cells [2]	Inhibition of HT1080 cell adhesion to vitronectin or fibronectin (HT1080 cells)	other results
B1	inhibited HT1080 invasion with a similar potency	competed	–	Competition of biotinylated β5 I-EGF2+3 binding to the MMP-9 C domain (MMP-9 C domain): inhibited; Binding of biotinylated β5 I-EGF2+3 to the MMP-9 C domain (MMP-9 C domain; 2.5 μg/ml): specifically bound; Binding of β5 I-EGF2+3 to MMP-9 CBD, vitronectin, itself or the C domain of MMP-2 [1]: did not bind
B2	inhibited HT1080 invasion with a similar potency	competed	Neither	Inhibition of THP-1 cell binding to KIM127 (THP-1 cells [3]; 50 μg/ml): 40%; Effect on THP-1 binding to R3F9C (THP-1 cells [4]): no effect; Binding of 125Iodine-labelled MMP-9 C domain to β5 integrin-transfected CS-1 cells ([2]; not to the untransfected cells): specific binding
B3	inhibited HT1080 invasion with a similar potency	No competition	–	–
B4	–	–	Neither	–
B5	–	–	–	Effect on THP-1 cell binding to immobilized KIM127 (THP-1 cells [3]; proteins 50 μg/ml, antibodies 25 μg/ml): did not
